Results on 13 molecules are retold here after US20190119366A1 (ADC THERAPEUTICS, published 2019).

Substitutions are numbered along the chain they refer to.

To fix the notation:
T1: recombinant human KAAG1 (Kidney associated antigen 1) (human, UniProt Q9UBP8 1-84)
T1 construct: also called KAAG1 protein
T1 sequence: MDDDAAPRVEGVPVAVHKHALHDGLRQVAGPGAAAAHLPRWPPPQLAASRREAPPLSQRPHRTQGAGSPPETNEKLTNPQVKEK

T2: KAAG1 on the surface of cancer cells (human, UniProt Q9UBP8 1-84)
T2 construct: Endogenous KAAG1 of human cancer cell lines and of tumor tissue sections; also called KAAG1 antigen
T2 sequence: T1 sequence

B1: humanized 3A4 antibody Lh1Hh2 (antibody, human IgG1, kappa, V domains shown)
VH: QIQLVQSGAEVKKPGASVKVSCKASGYTFTDDYMSWVRQAPGQGLEWMGDINPYNGDTNYNQKFKGRVTITADKSTSTAYMELSSLRSEDTAVYYCARDPGAMDYWGQGTLVTVSS
VL: DIVMTQTPLSLPVTPGEPASISCRSSQSLLHSNGNTYLEWYLQKPGQSPQLLIYTVSNRFSGVPDRFSGSGSGTDFTLKISRVEAEDVGVYYCFQGSHVPLTFGQGTKLEIKR
notes: Human IgG1/kappa
B2: humanized 3A4 antibody Lh2Hh2 (antibody, human IgG1, kappa, V domains shown)
VH: B1 VH
VL: B1 VL with I2V, Q50K
notes: Human IgG1/kappa
B3: humanized 3A4 antibody Lh1Hh1 (antibody, human IgG1, kappa, V domains shown)
VH: B1 VH with I2V, K74T
VL: B1 VL
notes: Human IgG1/kappa; 100% humanized frameworks; also called H1 L1; H1L1
B4: humanized 3A4 antibody Lh2Hh3 (antibody, human IgG1, kappa, V domains shown)
VH: B1 VH with M48I, V68A, I70L, A72V
VL: B1 VL with I2V, Q50K
notes: Human IgG1/kappa
B5: humanized 3A4 antibody Lh1Hh4 (antibody, human IgG1, kappa, V domains shown)
VH: B1 VH with R38K, M48I, R67K, V68A, I70L, A72V
VL: B1 VL
notes: Human IgG1/kappa
B6: humanized 3A4 antibody Lh1Hh3 (antibody, human IgG1, kappa, V domains shown)
VH: B1 VH with M48I, V68A, I70L, A72V
VL: B1 VL
notes: Human IgG1/kappa
B7: humanized 3A4 antibody Lh2Hh1 (antibody, human IgG1, kappa, V domains shown)
VH: B1 VH with I2V, K74T
VL: B1 VL with I2V, Q50K
notes: Human IgG1/kappa
B8: humanized 3A4 antibody Lh2Hh4 (antibody, human IgG1, kappa, V domains shown)
VH: B1 VH with R38K, M48I, R67K, V68A, I70L, A72V
VL: B1 VL with I2V, Q50K
notes: Human IgG1/kappa; 10 mouse framework residues retained; also called H4L2
B9: 3G10 anti-KAAG1 antibody (antibody, V domains shown)
VH: EIQLQQSGPELVKPGASVKISCKASGYTFTDNYMNWVKQSHGKSLEWIGDINPYYGTTTYNQKFKGKATLTVDKSSRTAYMELRGLTSEDSAVYYCARDDWFDYWGQGTLVTVSA
VL: DVLMTQTPRSLSVSLGDQASISCRSSQSLLHSNGNTYLEWYLQKPGQPPKVLIYKVSNRFSGVPDRFSGSGSGTDFTLKISGVEAEDLGVYYCFQGSHVPLTFGAGTKLELK
B10: 3A9 anti-KAAG1 antibody (antibody, V domains shown)
VH: QVQVQQPGAELVRPGASVTLSCKASGYIFTDYEVHWVRQRPVHGLEWIGVIDPETGDTAYNQKFKGKATLTADKSSSTAYMELSSLTAEDSAVYYCIGYADYWGQGTTLTVSS
VL: DIVMTQSPSSLAMSLGQKVTMSCKSSQSLLNSNNQLNYLAWYQQKPGQSPKLLVYFASTRKSGVPDRFIGSGSGTDFTLTITSVQAEDLADYFCQQHFNTPLTFGAGTKLELK
notes: Variable regions only; Isolated from a Fab library
B11: 3E10 anti-KAAG1 antibody (antibody, V domains shown)
VH: EVQLQQSGPELVKPGASVKISCKASGDTFTDYYMNWVKQSHGKSLEWIGDINPNYGGITYNQKFKGKATLTVDTSSSTAYMELRGLTSEDSAVYYCQAYYRNSDYWGQGTTLTVSS
VL: DIVMTQAAPSVPVTPGESVSISCRSSKSLLHSNGNTYLYWFLQRPGQSPQLLIYRMSNLASGVPDRFSGSGSGTAFTLRISRVEAEDVGVYYCMQHLEYPYTFGGGTKLEIK
notes: as for B10
B12: 3A4-ADC1 (chimeric 3A4 conjugated to a cytotoxic drug via a cleavable peptide linker) (antibody, human IgG1, kappa, V domains shown)
VH: QIQLVQSGPEMVKPGASVKMSCKASGYTFTDDYMSWVKQSHGKSLEWIGDINPYNGDTNYNQKFKGKAILTVDKSSSTAYMQLNSLTSEDSAVYYCARDPGAMDYWGQGTSVTVSS
VL: DVVMTQTPLSLAVSLGDQASISCRSSQSLLHSNGNTYLEWYLQKPGQSPKLLIHTVSNRFSGVPDRFSGSGSGTDFTLKISRVEAEDLGVYYCFQGSHVPLTFGAGTRLELKR
modifications: cytotoxic drug conjugated via a highly stable peptide linker that is selectively cleaved by lysosomal enzymes; chain and residues of attachment not stated
B13: 3A4-ADC2 (chimeric 3A4 conjugated to an anti-mitotic drug via a non-cleavable linker) (antibody, human IgG1, kappa, V domains shown)
VH: B12 VH
VL: B12 VL
modifications: anti-mitotic drug conjugated via a non-cleavable linker; chain and residues of attachment not stated

One assay concerns the target T1, recombinant human KAAG1 (Kidney …). The assay is described as follows: SPR (BioRad ProteOn XPR36): antibody captured on an anti-human IgG Fc surface, KAAG1 injected as analyte, 1:1 Langmuir fit. The method, then:
(§1) Immediately after the activation, a 13 μg/mL solution of anti-human IgG Fc fragment specific in 10 mM NaOAc pH 4.5 was injected in the analyte direction at a flow rate of 25 μL/min until approximately 8000 resonance units (RUs) were immobilized. Remaining active groups were quenched by a 300 s injection of 1M ethanolamine at 30 μL/min in the analyte direction, and this also ensures mock-activated interspots are created for blank referencing. The screening of the 3A4 variants for binding to KAAG1 occurred in two steps: an indirect capture of 3A4 variants from cell supernatant onto the anti-human IgG Fc fragment specific surface in the ligand direction(vertical) followed by a KAAG1 injection in the analyte direction. Firstly, one buffer injection for 30 s at 100 uL/min in the ligand direction was used to stabilize the baseline. […] Four to five 3A4 variants along with wild-type 3A4 were simultaneously injected in individual ligand channels for 240 s at flow 25 μL/min. […] The first ligand channel was left empty to use as a blank control if required. This 3A4 capture step was immediately followed by two buffer injections in the analyte direction to stabilize the baseline, and then the gel filtration purified KAAG1 was injected. For a typical screen, five KAAG1 concentrations (8, 2.66, 0.89, 0.29, and 0.098 nM) and buffer control were simultaneously injected in individual analyte channels at 50 μL/min for 120 s with a 600s dissociation phase, resulting in a set of binding sensorgrams with a buffer reference for each of the captured 3A4 variants. The anti-human IgG Fc fragment specific—3A4 complexes were regenerated by a 18 s pulse of 0.85% phosphoric acid for 18 s at 100 μL/min to prepare the anti-human IgG Fc fragment specific surface for the next injection cycle. Sensorgrams were aligned and double-referenced using the buffer blank injection and interspots, and the resulting sensorgrams were analyzed using ProteOn Manager software v3.0.
Regarding B1, the equilibrium dissociation constant (Kd) is 0.211 nM, the koff turned out to be 0.00119 s⁻¹ and the kon came to 5.65e+06 M⁻¹ s⁻¹.
For B2 the same measures were 0.245 nM, 0.00181 s⁻¹ and 7.4e+06 M⁻¹ s⁻¹.
For B3 the same measures were 0.474 nM, 0.00328 s⁻¹ and 6.93e+06 M⁻¹ s⁻¹.
For B4 the same measures were 0.228 nM, 0.00102 s⁻¹ and 4.46e+06 M⁻¹ s⁻¹.
As for B5, the dissociation constant (Kd) came to 0.149 nM, the koff stood at 0.000764 s⁻¹ and the kon was determined as 5.14e+06 M⁻¹ s⁻¹.
B6: the Kd was determined as 0.149 nM, the koff came to 0.00096 s⁻¹ and the kon was found to be 6.46e+06 M⁻¹ s⁻¹.
Take B7: the Kd stood at 0.341 nM, the koff is 0.00237 s⁻¹ and the on-rate (kon) was 6.97e+06 M⁻¹ s⁻¹.
For B8 the same measures were 0.103 nM, 0.00047 s⁻¹ and 4.57e+06 M⁻¹ s⁻¹.

The target is the same in the next assay. The assay is described as follows: epitope mapping studies (method not described).
Take B9: the binding result was “binds”.

The next assay shares this target. The assay is described as follows: SPR (BioRad ProteOn XPR36); fold difference of KD relative to LcHc. The method, then: as §1
In the case of B1, the Fold diff. came to 13.2.
For the molecule B2, the Fold diff. was 15.3.
Still for that read-out and setting: then B3, with 29.6; and B4, with 14.3.
In the case of B5, the Fold diff. was 9.3.
Take B6: the Fold diff. was found to be 9.3.
With B7, the Fold diff. came to 21.3.
For B8, the Fold diff. is 6.4.

For a further assay the target is unchanged. The assay is described as follows: SPR (ProteOn XPR36), antibody captured on anti-human IgG Fc, KAAG1 as analyte. As to the method:
as §1
On to B3, for which the Kd was found to be 0.47 nM; the “fold difference in binding affinity between the worse variant (H1 L1) and the best variant (H4L2)” value was 4 fold.
Consider B8, for which the Kd came out at 0.1 nM and the “fold weaker affinity than the murine (LcHc)” value was ~6 fold.

Another assay shares this target. As to the kind of experiment: not described; list of antibodies generated.
B10: the binding result is “binds”.
Same read-out and setting: the result for B11 reads “binds”.

A further assay deals with T2, KAAG1 on the surface of cancer cells. As to the kind of experiment: flow cytometry, MDA-231 cells.
For the molecule B12, the binding result is listed as “binds”.
On to B13, for which the binding result is reported as “binds”.
